# Assay results published in a protein production outcome set (Wang et al. 2014).
# Assay: label from the status in PepcDB records
# 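Note: failed if final PepcDB status was selected cloned or expressed and not failed if soluble or beyond.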
row,Sequence,protein production
1,DKLDLSPIDYYGSGSYWKTEAQATAYIDGIHKHLRDAAWQHTITFGELRGGRFITGASSDGMGVSNGDIILQNFDETHTGVSKFGDLFGRITNLNLFIARVTDATYLSDEMKNFYLGEVYGLRAFYYFDLYRIYGGVPLRLTADVVEGVIDPNKLYMARSTPKEVMTQIKSDLNKSMEYFGNMNDFDPYKRGKKVYWSKAATECLMGEVYLWTSKVTTGDDVANPADLTIAKTHLESVLNNYNLKMLDDFSQVFNAKNKANDEIIFAIRFLEGEATNSNGTFTYNVGTGSTKNRYQANGEVFGDALDIQNTGNQTYEYNKAVYQNFDDADTRKEATFIASYNKDGKTGELSLYGTHVRKNIGYVNAQGARVYCGDYIFYRLPWVYLTLAEIANMEGDNAAVAKYINLVRKRAYGNAWDETLYAYPETADFTTNELAILHEKDKEFIQEGQRWWDLRRMTLTKGGTPLVFCKEGSLLGDAPILNKSTEAHKLLWPIEKTMLNKDPALEQTPGYK,not failed
2,DMKQLAEDVKLQLYKLLEIPDPDKNWATLAQKLGLGILNNAFRLSPAPSKTLMDNYEVSGGTVRELVEALRQMGYTEAIEVIQAASS,not failed
3,DNDAEALLWSELRDRRLNGFKFVRQVAVGPYFADFACRDERLVVEVDGSQHQIGSGDARRDKFMVMNGWSVLRFWNTDIFNDRAAVLETIVAVLEKRLVREVRSAD,failed
4,DNYRTTGIATIEVFLPPRLKKDRKNLLETRLHITGRELRSKIAETFGLQENYIKIVINKKQLQLGKTLEEQGVAHNVKAMVLELKQS,not failed
5,DPSVFSLPDSKLPGDKEFVPWQQDLDDSVKPTQQARPTVIRWSEGGKEVFISGSFNNWSTKIPLIKSHNDFVAILDLPEGEHQYKFFVDGQWVHDPSEPVVTSQLGTINNLIHVKKSDFEVFDALKLDSMESSETSCRV,failed
6,DQEPPLYVNENDIFTSPTRIEATLNGLYAAIKNTGTKSLMGGKSYLVFDNRGDDVINISNNLVTLFNTYNMNVGITDAENADTWTYAYLAINKVNTFLQSLEGAREVAGENYDRYVQEAKFVRALAYYYLNNLYPTPYSVNPDAKSVPLRLTAEAGTENNNMPRSTVKQIYEHILSDLENISALDTEVNTYTGVTHATQAAANMLKMRVYMAMNEWDKAITAGELVTGYSLPEDVTLIYKAPYFSQESIFSLPMADTNIPNTQQSLAEYYYDGKIMLIDTKSGIMSKPDYSLATDKRIIAFKGEKDLLMKFTDAKTKLQWVPIFRYAETLLDLAECYANKAGGEATAKSLLKQVRGRSVDAATDPLNIDNLSGDALKEAIYNEKRLEFIGEGIRGIDIMRRGEHFIKVGENETINVGPSDEKYTWPIPQVELLLNKDINK,not failed
7,DQKGDKVVIRGNNYVSIATGLNWYLKYYAGIHLSWNGMQAKLPAVLPPVTKKERRETTLPYRYDLNYCTFSYSMAFWDWNRWEKEIDWMALHGINIPLAVTGAEAVWHNVLDKLGYTKTEINEFISGPGFFAWWLMNNLEGWGGPNPDSWYTRQIALQKKILKRMREYGIEPVLPGYCGMVPHNAKEKLGLNVSDPGTWCGYRRPAFLQPSDPRFEEISSLYYKELEKLYGKANFYSMDPFHEGGNTAGVDLDAAGKAVMKAMKKANPKAVWVAQAWQANPRPKMIENLKAGDLLILDLTSECRPQWGDSTSEWYRKNGYGQHDWIYCMLLNYGGNVGLHGKMDNVIDNFYLAKADPHASATLKGVGMTPEGIENNPVMYELVMELPWRPDRFTKEEWLKEYVKARYGVDDPVVQAAWTNLANSIYNSPKNLTQQGTHESVFCARPAEDVYQVSSWSEMKDYYRPQEVIEAARLMVSVADRFKGNNNFEYDLVDIVRQALAEKGRLMQKAVTAAYRAGDKQLFALASGKFLDLILLQDKLLGTRPEFRVGKWIEEARALGDTPEEKELYEWNARVQITTWGNRNAADYGGLRDYAHKEWNGLLKDFYYMRWKLYFDFLSQRIEGKTPAEIDFYAIEEPWTKAANPYSAEAEGDCIEVAKQVMQAVE,failed
8,DRDQTLALMAQMTIPTLATWCAVYTIADQASEPYLSYVLHEDEDRIDGVKALLSKIPPPEPIPTPGARVWSAPAQAAHEAALRTSMRSLGLGEPATVSSGIGTTLATASAVGGETVVLPLVARNRVIGMLTLGKPSDEHFRQEILELAEDLSRRAALALDNARLYSERTAISQSLQRSLLPPDLPHI,failed
9,DRIYLVAPEDIYLVSVEERQLSIFVDQQVYKMTGTLNSIEQKLPATLFIKTHRSFILNRTKIQEIQPWFNNTLQVILTNGSKVPVSRSYVKEFKEKLGLS,failed
10,DRLRAFNHRLQNTPESVKVLRDWNMELDKNVTEVQGRIIGQQNIVFHNGKVPAGENADWQRHFRDQRMLTTPSDGLDRWAVIAPQRNSHELRTLLDSLYR,failed
11,DRRYKWQTVVSEQLVGAGFNEILNNSLTAGSYYEGLKTHPREMAVELMNPLSQELNCMRQTLLFGGLETLSHNLRRKHLSLYLFEWGKCYRFHAAKRTDETPLSAYAEDDRLGIWICGQRVHNSWAHPEEPTSVFELKAVVEQVLCRVGIETGAYTLETADNDLYASAMEVKTRSGKLLGTFGTVSTEQIKRFDIEQPVYFAELLWDALMSESARYKLEARD,failed
12,DRTTYYSILGLTSNATSSEVHKSYLKLARLLHPDKTKSDKSEELFKAVVHAHSILTDEDQKLRYDRDLKIKGLHTYQPKK,failed
13,DSVDLCIMEILKDILDLFHGGRVYIFEYDEYYRYQDCTYEVVAEGVLPEIDSLQRIPTDSLPWWRQQTLSGKPVILDSLDQLPKHAKAEYAILSRQNIKSLMITPLIAGEHVWGYMGIDLVKNYRNWNNEDFQWLSSLANIISICIELRKAKDEAVRERSFLRNLFRFMPMGYIRMTMVRDAAGLP,failed
14,DYIEMKVPAQPEYVGIIRLTLSGVASRMGYTYDEIEDLKIAVSEACTNAVQHAYKEDKNGEVSIRFGVFEDRLEVIVADEGDSFDFDQKQQDLGPYTPSHTVDQLSEGGLGLYLMETLMDEVRVQNHSGVTVAMTKYLNGERVDHDTT,failed
15,DYPIMIICPGGGFTYHSGREEAPIATRMMAAGMHTVVLNYQLIVGDQSVYPWALQQLGATIDWITTQASAHHVDCQRIILAGFSAGGHVVATYNGVATQPELRTRYHLDHYQGQHAAIILGYPVIDLTAGFPTTSAARNQITTDARLWAAQRLVTPASKPAFVWQTATDESVPPINSLKYVQAMLQHQVATAYHLFGSGIHGLALANHVTQKPGKDKYLNDQAAIWPQLALRWLQE,failed
16,EAGGIGIWEWELKPNIFSWDKRMFELYEIPPHIKPNWQVWYECVLPEDRQHAEKVIRDSLQSRSPFKLEFRIAVKDGIRHIRALANRVLNKEGEVERLLGINMDMT,failed

row,Sequence,protein production
1,EAKAKANTTRSLQALINLQPQQATVITEQGDQQITVEQITLGMKLRIKPGEKVPVDGVVIQGESYIDESMLTGEPVPVLKAQEAQVSAGTLNTDGALIIEATGIGANTMLARIIRMVRTAQSSKPAIAKLADQ,failed
2,EAQRELTEMEARTRLTTEMMPAHIAHVGRDLRYTYSNRRLSQVIPGRPSDILGLTGREALGEGLFARIRPCLLRALEGEASVLEFSDEDSGSRIRAAFTPDRTGDGPINGVYILSMDVT,failed
3,EASSKSYRELIIEGLTALKERKGSSRPALKKFIKENYPIVGSASNFDLYFNNAIKKGVEAGDFEQPKGPAGAVKLAKK,not failed
4,EDATPETVEYRQLSAADLLADTHLLREVFGLLVLAHYRTEPSDLARLLDAPNLTVRALTHEGHVVAVALLAQEGGLSASTRATMYEGGRVRGNMLPDVLSTQLRDEAAGVPVGQRVLRIATHAAVRSRGLGSKLLSEIRAEFADHVDWVGVSYGATPELVRFWADNGYNTVHLATSRNATSGEYSVVMLDP,failed
5,EDFVDPWTVQTSSAKGIDYDKLIVRFGSSKIDKELINRIERATGQRPHHFLRRGIFFSHRDMNQVLDAYENKKPFYLYTGRGPSSEAMHVGHLIPFIFTKWLQDVFNVPLVIQMTDDEKYLWKDLTLDQAYSYAVENAKDIIACGFDINKTFIFSDLDYMGMSSGFYKNVVKIQKHVTFNQVKGIFGFTDSDCIGKISFPAIQAAPSFSNSFPQIFRDRTDIQCLIPCAIDQDPYFRMTRDVAPRIGYPKPALLHSTFFPALQGAQTKMSASDPNSSIFLTDTAKQIKTKVNKHAFSGGRDTIEEHRQFGGNCDVDVSFMYLTFFLEDDDKLEQIRKDYTSGAMLTGELKKALIEVLQPLIAEHQARRKEVTDEIVKEFMTPRKLSFDFQ,not failed
6,EEIRKIPMFSSYNPGEPNKVLYLKNLSPRVTERDLVSLFARFQEKKGPPIQFRMMTGRMRGQAFITFPNKEIAWQALHLVNGYKLYGKILVIEFGKNKKQRS,not failed
7,EGALPKASEATVCANNSKVSSPGEKVVLWTREADRVILTMCQEQGAQPHTFSVISQQLGNKTPVEVSHRFRELMQLFHTACE,not failed
8,EGQPLTRLKHMEPRLMAELGGLCAKLDKALAHFDHPGLARTLQWDPQHAGALIDHLLPVLQDGGQRARIEHATRQANEHLMPLVDQLPSQAVHLDITDDNTVWARDAQRQWQLQGVIDFGDLLRTWRIADLSVTCAALLHHAEGDPLRILPAVQAYQALNPLTEAELRALWPLVLNRAAVLVLSSEQQLTVDPGNQYTRDNIAHEWEIFDTATAVPFALMEAAILQAAGLQPAAP,failed
9,EGWMDEPDWRRFITAYHQEHAGITEQLFSLADTSPYAWLAEPLRAVEGTVLDLACGSAPTRQELPDADWVGVDLSAAELAEAARQGRGPLLRAAADALPAASASVGAVCAAMCLPVVTPLPQTLGEIRRVLRPGGVLAALVPSQSGLSPSGMLGWVRVMAALRAVRQPWPNPQARDGLPALLRTAGFRVRRDERHVFTLAIDSAGAAALLADALYLPGLTTHRAQAAKR,failed
10,EGYEQDFAVLTAEITSKIARVPRLPPDEKKQMVANVEKQLEEARELLEQMDLEVREIPPQSRGMYSNRMRSYKQEMGKLETDFKRSRIA,not failed
11,EHAKQASSYIPLDRLSISYCRSSGPGGQNVNKVNSKAEVRFHLASADWIEEPVRQKIALTHKNKINKAGELVLTSESSRYQFRNLAECLQKIRDMIAEA,not failed
12,EHNYHPNAVAAGLRAGRTRSIGLVIPDLENTSYTRIANYLERQARQRGYQLLIACSEDQPDNEMRCIEHLLQRQVDAIIVSTSLPPEHPFYQRWANDPFPIVALDRALDREHFTSVVGADQDDAEMLAEELRKFPAETVLYLGALPELSVSFLREQGFRTAWKDDPREVHFLYANSYEREAAAQLFEKWLETHPMPQALFTTSFALLQGVMDVTLRRDGKLPSDLAIATFGDNELLDFLQCPVLAVAQRHRDVAERVLEIVLASLDEPRKPKPGLTRIKRNLYRRGVLSRS,not failed
13,EIAQVTSAYVASGSEQLSLAPGQLILILKKNTSGWWQGELQARGKKRQKGWFPASHVKLLGPSSERA,not failed
14,EIDYTAYPWFAGNMERQQTDNLLKSHASGTYLIRERPAEAERFAISIKFNDEVKHIKVVEKDNWIHITEAKKFDSLLELVEYYQCHSLKESFKQLDTTLKYPYK,failed
15,EKIGDRTYRVVSRLSLEDLKDHIEEELDLEIEFGDEIEDQVDTVGGLIAFELGRVPLPGATVETCGLKLTAEGAKNRRGRLRMHSAVVEVGE,not failed
